Source: publication PMC4380498, “Molecular Insights into Frataxin-Mediated Iron Supply for Heme Biosynthesis in Bacillus subtilis” (PLoS ONE, 2015)

Columns and labels:
[1] = molecular target: the molecule itself; experiment: SEC; separation of the apo- and holo-forms of bsNos by size-exclusion chromatography after affinity purification from the crude protein extract
[2] = molecular target: T1, Bacillus subtilis ferrochelatase HemH, recombinant Strep-tag II variant (Bacillus subtilis 168, UniProt P32396 1-310); experiment: MST; 50 nM fluorescently labelled holo-Fra (iron-charged); HemH titrated from 42.6 μM to 0.01 μM in TRIS-based NT binding analysis buffer; 25°C; Monolith NT.115; settings: both partners purified
T1 construct: ferrochelatase HemH of Bacillus subtilis 168, gene amplified from genomic DNA; Expressed from the pASK-IBA3 vector; also called HemH-Strep II; HemH-StrepII; not shown: Strep-tag II, C-terminal, kept
T1 sequence: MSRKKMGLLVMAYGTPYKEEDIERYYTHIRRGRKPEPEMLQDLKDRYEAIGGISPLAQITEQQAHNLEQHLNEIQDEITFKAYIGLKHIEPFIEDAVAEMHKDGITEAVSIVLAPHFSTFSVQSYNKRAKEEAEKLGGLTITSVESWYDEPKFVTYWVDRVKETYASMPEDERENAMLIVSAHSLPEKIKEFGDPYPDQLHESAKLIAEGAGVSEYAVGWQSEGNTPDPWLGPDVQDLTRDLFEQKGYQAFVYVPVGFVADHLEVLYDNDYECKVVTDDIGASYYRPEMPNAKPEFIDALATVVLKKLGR

[3] = molecular target: T1, Bacillus subtilis ferrochelatase HemH, …; experiment: cell-based or functional assay

B1: Bacillus subtilis nitric oxide synthase bsNos, recombinant His6-tagged (enzyme, Bacillus subtilis 168, UniProt O34453 1-363, looked up)
chain: MEEKEILWNEAKAFIAACYQELGKEEEVKDRLADIKSEIDLTGSYVHTKEELEHGAKMAWRNSNRCIGRLFWNSLNVIDRRDVRTKEEVRDALFHHIETATNNGKIRPTITIFPPEEKGEKQVEIWNHQLIRYAGYESDGERIGDPASCSLTAACEELGWRGERTDFDLLPLIFRMKGDEQPVWYELPRSLVIEVPITHPDIEAFSDLELKWYGVPIISDMKLEVGGIHYNAAPFNGWYMGTEIGARNLADEKRYDKLKKVASVIGIAADYNTDLWKDQALVELNKAVLHSYKKQGVSIVDHHTAASQFKRFEEQEEEAGRKLTGDWTWLIPPISPAATHIFHRSYDNSIVKPNYFYQDKPYE
notes: nitric oxide synthase bsNos of Bacillus subtilis 168, gene amplified from genomic DNA; The holo-form (with heme b) is called dimeric and the apo-form monomeric; The two were separated by size-exclusion chromatography; also called Nos-His6; holo-bsNos; not shown: His6, N-terminal, kept
stoichiometry N [1]: 2

B2: Bacillus subtilis frataxin homologue Fra, recombinant His6-tagged (natural protein, Bacillus subtilis 168)
chain: MDVFSEYLAGIADPFHRERTEEVLTWIKNKYPNLHTEIKWNQPMFTDHGTFIIGFSVSKKHLAVAPEKVTIAHVEDDIVKAGYDYTEQLIRIPWNGPVDYTLLEKMIEFNILDKADCSTFWRK
notes: frataxin homologue Fra of Bacillus subtilis 168, gene amplified from genomic DNA; Used iron-loaded (holo-Fra, anaerobic incubation with FeCl2) or iron-free (apo-Fra); For MST it was labelled with the cysteine-reactive Monolith NT.115 Protein Labeling Kit RED; The methods say N-terminal His6-tag fusions, while legends print Fra-His6; also called Fra-His6; holo-Fra; not shown: His6, N-terminal, kept
Kd [2]: 1.63 ± 0.02 µM | kcat(obs) of the frataxin-dependent conversion of protoporphyrin IX into heme b by HemH (holo-Fra varied between 0.1 and 10 μM, Michaelis-Menten fit) [3]: 0.925 s⁻¹
